In paper PMC6546359:

T1: CsrA-Strep (Bacillus subtilis, UniProt P33911 1-74)
T1 sequence: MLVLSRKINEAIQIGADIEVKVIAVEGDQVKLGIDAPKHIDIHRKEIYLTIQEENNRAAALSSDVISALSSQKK

B1: RoxS (structured_RNA)
RNA: GUGAAAUUGAUCACAAACAAACAUUACCCCUUUGUUUGACCGUGAAAAUUUCUCCCAUCCCCUUUGUUGUCGUUAAGACAUAUGAAACCGCGCUUAUCCCGGCGCGGUUUCUUU
B2: RnaC (structured_RNA)
RNA: UAAGGCCGGCGCGAUACUCCCUAUAACAUCCUUUUCAGUAGAUUUCAUUAUCGUGCCGGUUUUCUCAUAUGCAAAGCAAUCCCGCCAAUCAGAUUGGCGGGGAUUUUAUAUUU
B3: FsrA (structured_RNA)
RNA: AUAGAGAGAAGCUACUCUCUGUUCCCCAACCCCUCUAUCAGAUCAAGAUCCGGAAAAAACUUGGCGCUACCCCCGCCAAGUUUUU

biological target: T1, CsrA-Strep; assay: EMSA

Binder	binding result
B1	no binding
B2	no binding
B3	no binding
